Here are results for 1 variant from IntAct's records for PubMed 17679699.

To fix the notation:
B1: Catenin beta-1 (Homo sapiens), P35222 (parent)
chain: MATQADLMELDMAMEPDRKAAVSHWQQQSYLDSGIHSGATTTAPSLSGKGNPEEEDVDTSQVLYEWEQGFSQSFTQEQVADIDGQYAMTRAQRVRAAMFPETLDEGMQIPSTQFDAAHPTNVQRLAEPSQMLKHAVVNLINYQDDAELATRAIPELTKLLNDEDQVVVNKAAVMVHQLSKKEASRHAIMRSPQMVSAIVRTMQNTNDVETARCTAGTLHNLSHHREGLLAIFKSGGIPALVKMLGSPVDSVLFYAITTLHNLLLHQEGAKMAVRLAGGLQKMVALLNKTNVKFLAITTDCLQILAYGNQESKLIILASGGPQALVNIMRTYTYEKLLWTTSRVLKVLSVCSSNKPAIVEAGGMQALGLHLTDPSQRLVQNCLWTLRNLSDAATKQEGMEGLLGTLVQLLGSDDINVVTCAAGILSNLTCNNYKNKMMVCQVGGIEALVRTVLRAGDREDITEPAICALRHLTSRHQEAEMAQNAVRLHYGLPVVVKLLHPPSHWPLIKATVGLIRNLALCPANHAPLREQGAIPRLVQLLVRAHQDTQRRTSMGGTQQQFVEGVRMEEIVEGCTGALHILARDVHNRIVIRGLNTIPLFVQLLYSPIENIQRVAAGVLCELAQDKEAAEAIEAEGATAPLTELLHSRNEGVATYAAAVLFRMSEDKPQDYKKRLSVELTSSLFRTEPMAWNETADLGLDIGAQGEPLGYRQDDPSYRSFHSGGYGQDALGMDPMMEHEMGGHHPGADYPVDGLPDLGHAQDLMDGLPPGDSNQLAWFDTDL
partner: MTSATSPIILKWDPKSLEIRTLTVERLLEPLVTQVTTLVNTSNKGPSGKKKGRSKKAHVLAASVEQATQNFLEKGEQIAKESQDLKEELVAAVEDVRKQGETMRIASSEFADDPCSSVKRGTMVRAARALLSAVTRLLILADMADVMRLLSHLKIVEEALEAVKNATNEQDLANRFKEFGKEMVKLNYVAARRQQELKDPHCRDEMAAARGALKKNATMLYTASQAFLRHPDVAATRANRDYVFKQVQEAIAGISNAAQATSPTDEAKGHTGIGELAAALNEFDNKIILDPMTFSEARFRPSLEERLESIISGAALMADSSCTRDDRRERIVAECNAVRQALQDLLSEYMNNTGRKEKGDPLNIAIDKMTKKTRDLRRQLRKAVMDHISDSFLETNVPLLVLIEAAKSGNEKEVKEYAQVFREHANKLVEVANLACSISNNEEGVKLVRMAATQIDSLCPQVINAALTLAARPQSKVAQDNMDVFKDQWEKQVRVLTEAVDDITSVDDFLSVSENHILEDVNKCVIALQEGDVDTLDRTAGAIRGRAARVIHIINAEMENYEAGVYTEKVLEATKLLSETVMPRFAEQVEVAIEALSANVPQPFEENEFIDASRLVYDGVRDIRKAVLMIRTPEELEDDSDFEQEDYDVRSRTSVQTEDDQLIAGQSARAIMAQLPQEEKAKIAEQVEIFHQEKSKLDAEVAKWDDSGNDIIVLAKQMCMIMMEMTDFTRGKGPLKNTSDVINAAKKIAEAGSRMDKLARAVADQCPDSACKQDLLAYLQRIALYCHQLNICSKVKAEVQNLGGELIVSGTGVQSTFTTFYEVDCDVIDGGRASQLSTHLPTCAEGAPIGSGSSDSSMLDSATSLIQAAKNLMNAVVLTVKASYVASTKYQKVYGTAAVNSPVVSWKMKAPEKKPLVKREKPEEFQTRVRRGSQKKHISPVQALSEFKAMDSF

In the experiment the parent is B1. The settings on record: with ctna2_human CTNNA2, P26232.
Take L132A: the “effect of a mutation on the interaction” value is “disrupting interaction strength”.
